Reference: a protein production outcome set (Wang et al. 2014)

Assay: label from the status in PepcDB records
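Note: failed if final PepcDB status was selected cloned or expressed and not failed if soluble or beyond.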

| Sequence | protein production |
| --- | --- |
| MNKVQSIDPLIADKFNNELRSYNLEYKLEQESLNKEIDEALKNYASKNGGLGGNRPDVKLLLNTQDPNRRVPILIEYKGLKDKLIKLDKNKLVENFKNHEPHYKNIREYALNGALHYANAILHHTSYTECIAIGITGYKDNKGGICSQIAVYYVNKSNLGMGIDVSKGEQGYSDLSFLSRKHFNDFIKRVDTLSLSDEDLERIREKKNQEIEDCLMRLNNNIYNKEKNFLSEHNRVYLVIASIIANLGIPNLVTPLNKEDLKSSDEVHQRDGDIMLRKIQSFLENKDLSPEKRQSIISSLETLLRNENNNKATNGESCLKRCFSEIVDSLGIYYKIGLSTDFTGKLFNEMYRWLGFTKDQLNDVVLTPPYVATLLARLSKVNKDSFVWDFATGSAGLLVASMNLMIEDAKKRITSPEELEQKIAHIKAKQLLGIEILSDIHTLAVLNMILMGDGSSQILNQDGLSGFDGKVNNEAFKANAFVLNPPYSASGNGMVFVEQALEKMQSGYASVIIQSSAGSGKAKEYNVRILEKHTLLASIKMPLDLFIGKSSVQTHIYVFRVNEKHDAKQRVKFINFSNDGYARANRKKAKASHNLKDTHNAKERYNEVVDLVHIGQSCLKFLSEDDYYENTIDPKNGSDWNQNKPTDTKPELEDFKRTIADYLSYEVSLILKNQMPPKR | failed |
| MAAKLCIPSSSFSHRTNDSITSSSSSYSSLLALPQFFCPPSPLGFPQFKLHAKLGGGDGEVKPKDKKKFITKDEEPEQYWQSVGEREGENPMKTPLPYIIIFGMSTPFVILAIAFANGWIKVPIR | failed |
| MSLTADTKRPLTLRDVSEASGVSEMTVSRVLRNRGDVSDATRARVLAAAKELGYVPNKIAGALASNRVNLVAVIIPSLSNMVFPEVLTGINQVLEDTELQPVVGVTDYLPEKEEKVLYEMLSWRPSGVIIAGLEHSEAARAMLDAAGIPVVEIMDSDGKPVDAMVGISHRRAGREMAQAILKAGYRRIGFMGTKMPLDYRARKRFEGFTEVLGKNGVEIEDREFYSGGSALAKGREMTQAMLERSPDLDFLYYSNDMIAAGGLLYLLEQGIDIPGQIGLAGFNNVELLQGLPRKLATMDACRLEIGRKAAEIIAKRLEDPEAEIETRITLEPKISYGDTLKREGHHHHHH | not failed |
| MKHIIILGDGMADWPAESLGNKTLLQYSSTPYMDKLAAMGRTGRLVTVAPGFHPGSEVANMSVMGYNLPKVYEGRGPLEAASIGVELQPGDMAMRCNIICIEDEKIKNHSAGHITTEEADVLVRYLEEKLGSDRIHFYTGVQYRHLLVIKGGNKQLDCTPPHDVPLQPFRPLMVKAEVPEAQETAGLINNLILASQELLADHPVNQKRIAEGKDPANSIWPWSPGYRPQMEPLSGKYPAIKKGAVISAVDLINGIGHYAGLRRIAVEGATGLYNTNYENKVAAALEALKTDDFVYLHIEASDEAGHEGDFKLKQFTIENLDKRVVGPVYEAVKDWDEPVAIAVLPDHPTPCELRTHTAEPVPFLIYYPGIEPDCVQTFDEVACVEGSYGILKEDEFMNEFMKK | failed |
| MNIRITNIQKQLHKYGIDGLLITKKENRQYATGFTGSAGVVLISADQAVFITDFRYVDQAKSQIQDAEIVMHKGNLEKEIAHQVSKLNIQKLGIEENNMTLQQYKNLQKYVHTEMIQVCEIIESIRIIKDTPEIETMKIAAHIADEAFHHILTFLKPGISENDVRDELEFFMRKKGATSSSFQIIVASGVRSSLPHGVASNKIIERSDIVTLDFGALYDGYCSDITRTVAIGEPSEEFKKIYNIVREALKRGTEAIKPGETAKRIDDITRNYITEHGYGQYFGHSTGHGLGLEIHEPLRLSQESKATLEEGMVVTVEPGIYIPNWGGCRIEDDIVITKDGYEVITKSNRELIVIPC | failed |
| MENIEYVFEDVVRIYDTDAQGIAHYAAYYRFFTNTIEKFIKEKVGIPYPIVNENLWFVIAESHAIYHRPVKLGDKLTVLLNPKILSNKTIKFEFKVLKDGELTTEGYVIQIAINPKIWKSTEMPKEIMDKLSIK | not failed |
| MFEMGIQELVKTIDTNINHMISLSVLNLAQLGIKYGIFKAVASRPSYEELLSQIPVPNKPLLKKLIEHLKALGIIEETPSNLILNGFSYVLKFPKEDYMLLLSDWIPIWEEIYKMVDFALISYSHPYVLMDFDKDADFWDIRLSSSFNKTYRDAIINLGEIREDSYILDLGCGSVSPAYFGKFISEDGKYVGVDYSPGLLEIARERVERNGLPAELKEMDVSLIRTRSKYDVAIMSFLLEYVRDREEVLGKVLEALDSGGKLIIVEAFRDEFENIQAMEFFESLNRSFVGYPAKAEIKKAILREGFDVSFEDYGKSILVVRKL | failed |
| TVASRLSDTKAAGEVKALDDFYKMLQHEPDRAFYGLKQVEKANEAMAIDTLLISDELFRHQDVATRSRYVRLVDSVKENAGTVRIFSSLHVSGEQLSQLTGVAAILRFPVP | not failed |
| MHATQAILQGLRPVWTRPARLILTTPMSTTPPVPSPLQRGTLKQRRNTLPKRSNRHRDGRVYYANLAATMIARDNLRAAQIILAESHRRHPAFCDTRLMEAGVHLSLGRSDAAEAALRICHEAEPDEQRAVSGLVEIALERADATTARQLLEDQPQTPTFDLARARIALFNGDPSAARTFLDAHPAEGSTTVLAAFADAMEGDLDTAIARLNAQANRTDAALALAALQAAAGVVPDAAPSSPTASFFTALNPAANDDRRAALNAAEGFEQGFTAAGLDAVPQGSPDLALGVVFRLWGFHGAALERLVAASNDDPENPLAAYFVAVAHLKLGQNAQAEAALAKARTAAPSFFAANIAAAELRIRAGAPQEALAMLKAAVAVREDPGALMRIGLIEESFGDDDTARAAYERFVAVQPGSYIGYNQLAWHLARRGIELDRAQELAERANTLQPENASVLDTLGWIAFLRGDGAGAIERLRAAHEISQGDIPIISFHLAQAELKYGETPRGIALLQDLTAAGPAAYPFSQEATDILAKALQ | failed |
| MKTTQRTAGWYHVMAAVTVMIWGTTFVATKVLIKYGLSPVDILFYRFLLAYICIWFFSPRVLLAKSWQDELRFVGLGLCGGSLYFVAENTALGMTLASNVSLIICTTPILTALLAPFFYKGDKLKARLIGGSLMALIGVGLVVFNGSFILQLSPAGDILTLIAALMWAFYCLLLRRMNTHYPTLFITRKVFFYGLVTLLPLFLVYPLQTDIHILFRPVVALNLLFLGVIASMLCYIMWNTAVKQLGVVCATSYIYVVPLITLLTSAIVIDETITIVALLGSALILSGVYIAERGVNLKK | failed |
| MMMEEKLVINELELGKELANRLMNNLKHTSSVDSNKTLISDILRIYQNAIFMLSFNQDKNILKRSLEIDGKDSKNVFKKRKVSEKNTEKVKVFVATEQENGSIDDGHCWRKYGQKEIHGSKNPRAYYRCTHRFTQDCLAVKQVQKSDTDPSLFEVKYLGNHTCNNITSPKTTTNFSVSLTNTNIFEGNRVHVTEQSEDMKPTKSEEVMISLEDLENKKNIFRTFSFSNHEIENGVWKSNLFLGNFVEDLSPATSGSAITSEVLSAPAAVENSETADSYFSSLDNIIDFGQDWLWS | failed |
| MTPSLSGLPPIRTALIGYGFAGKTFHAPLIRAVPALCLEHVVSRDPGRVHADLPEARVSADPDEAIEAADIDLVVIASPNATHASLAERALRAGKHVVVDKPFTVTLAEARRLADLARERPGQVLSVFQNRRFDSDFLAVEAALQAGSIGPVRYFESAIERFRPQVRDRWREHDLPGSGLWFDLGPHLLDQALCLFGVPQRVHGHLRRLREGALTDDWFEVLLDYPHCQVALRASMLAANPAPRFNVHGDHGSLLKAGADIQEAQLLQGLHPGSAGWGRDPDLLQHIDGQGLRQSLVTPAGDQSRYYQALAAAIRGQSRNPVSAQQACALMALLELARRSAEEGRSLPVELRDEERQAWN | failed |
| LTLRSVFQPIFDKQHQVVGAEALVRIFTQHHTQIRPDLFFHSETFADDDKLNVERLSRAIHIRNFSLSPYRDTRLFLNVLPVAGEQFAYCDISSTLLATRLAELNIPHHRVVMELVEIESGDEGMLQMATEKLVANGFQIAIDDFGCKASTPERVAMLRPNIIKLDRQLLLDFMAGDCCGLLAGVQLAQKTGAHTVVEGIETAEQLAAMQKLDINMYQGYYLALP | failed |
| MERKKLIAKFVEIASEKMGKDLETVDEENTFKELGFDSIDVIDLVMFFEDEFALRIEDEEISKIRKVKDLIDIVIKKLEEIDDEVSEG | not failed |
| RISWVGEAVKTDGKKSYYKKVCIDAETLEVGDCVSVIPDDSSKPLYLARVTALWEDSSNGQMFHAHWFCAGTDTVLGATSDPLELFLVDECEDMQLSYIHSKVKVIYKAPSENWAMEGGMDPESLLEGDDGKTYFYQLWYDQDYARFESPPKTQPTEDNKFKFCVSCARLAEMRQKEIPRVLEQLEDLDSRVLYYSATKNGILYRVGDGVYLPPEAFTFNIKLSSPVKRPRKEPVDEDLYPEHYRKYSDYIKGSNLDAPEPYRIGRIKEIFCPKKSNGRPNETDIKIRVNKFYRPENTHKSTPASYHADINLLYWSDEEAVVDFKAVQGRCTVEYGEDLPECVQVYSMGGPNRFYFLEAYNAKSKSFEDPPNHARSP | failed |
| MENDSSIQWEHSHDFGLDNKLHENKVKTVFWLTTVIMVLEIGAGTWSGSMALLADGWHMGTHSAAFLIAIFAYSYAKKHANNKDFSFGTGKVNSLGGFASAIALAIVALMMIVESVQRLLEPQSIHFNEAIVVAIIGLVVNVASVFILHDDHHHHGEHHHDHDHNMKAAYFHVLADTLTSLLAIVALLIGKYVGLIWMDPLMGIVGAIVILRWSYGLIKDSSNVLLDKSVKKSTLEQISKALSKKNTVINDIHVWTIATAHQAAILKVTSAQPLNSDEYEGILREILPQLSHISIEIRHDYSL | failed |
| FVNTFIQFKKPIIVAVNGPAIGLGASILPLCDVVWANEKAWFQTPYTTFGQSPDGCSTVMFPKIMGGASANEMLLSGRKLTAQEACGKGLVSQVFWPGTFTQEVMVRIKELASCNPVVLEESKALVRCNMKMELEQANERECEVLKKIWGSAQGMDSMLKYLQRKIDEF | failed |
| MPASVMTDLSAAWAAFEAHDYALAERQAQALLAHPATASGARFMLGYVYAFMDRFDEARASFQALQQQAQKSGDHTAEHRALHQVGMVERMAGNWDAARRCFLEERELLASLPEDPLAASANAYEVATVALHFGDLAGARQEYEKSLVYAQQADDQVAIACAFRGLGDLAQQEKNLLEAQQHWLRARDIFAELEDSEAVNELMTRLNGTEG | failed |
| ELQAGFDKQEYMETLKINYKVHIALDKWAANTSVADPQDFDFVYRSPVVAFDNIWDLWKHKNKSVALISVQGSIQTEASFLANLYAAMIPAKGELQLDKDFKFTYQLADNPHAAVHVGWFVAMAYLSKTVVSKIDSCYNAGIKDFILTGHSQGGGITFLLNSYLENLKMQGRLPADIRFKTYCSAGPKPGNLFYAYEYEHMTAGGWAYNVVNTADWVPDVPFSVQTVTDFTAVNPFHGAKKAIRKQRFPANLALKHMYNKMSKPSERAQKNYQKYLGRMVSNAVKKQIPNFNAPEYYNSNYYVRTGNTIVLFPDEAYYKIYSNDPEDPNIWRHHLP | failed |
| MAGSGVPSHRSMVIKVSVFAVVMLLVAAGLVVVFGDFRFGPTTVYHATFTDASRLKAGQKVRIAGVPVGSVKAVKLNPDHSIDVAFAIDRSYTLYSSTRAVIRYENLVGDRFLEITSGPGELRKLPPGGTINVAHTQPALDLDALLGGLRPVLKGFDADKINTITSAVIELLQGQGGPLANVLADTGAFSAALGARDQLIGEVITNLNAVLATVDAKSAQFSASVDQLQQLVSGLAKNRDPIAGAISPLASTTTDLTELLRNSRRPLQGILENARPLATELDNRKAEVNNDIEQLGEDYLRLSALGSYGAFFNIYFCSVTIKINGPAGSDILLPIGGQPDPSKGRCAFAK | failed |
